Measurements reported in patent US20260055194A1.

How the values were obtained:
[1] = target: human CI-M6PR on K562 cells (human) (UniProt P11717); test: flow cytometry dot plot, cell surface stain, M6PR-KO K562 cells [Cont. 2]
[2] = target: human CI-M6PR on K562 cells (human) (UniProt P11717); test: flow cytometry, intracellular stain (fixed, permeabilized), wild type K562 cells, Alexa 647
[3] = target: human CI-M6PR on K562 cells (human) (UniProt P11717); test: flow cytometry dot plot, cell surface stain, wild type K562 cells [Cont. 1]
[4] = target: human CI-M6PR on K562 cells (human) (UniProt P11717); test: flow cytometry, cell surface stain, wild type K562 cells, Alexa 647
[5] = target: human CI-M6PR on K562 cells (human) (UniProt P11717); test: flow cytometry, intracellular stain (fixed, permeabilized), M6PR-KO K562 cells, Alexa 647
[6] = target: human CI-M6PR on K562 cells (human) (UniProt P11717); test: flow cytometry dot plot, intracellular stain, M6PR-KO K562 cells [Cont. 2]
[7] = target: human CI-M6PR on K562 cells (human) (UniProt P11717); test: flow cytometry, cell surface stain, M6PR-KO K562 cells, Alexa 647
[8] = target: human CI-M6PR on K562 cells (human) (UniProt P11717); test: flow cytometry dot plot, intracellular stain, wild type K562 cells [Cont. 1]
[9] = target: human CI-M6PR on K562 cells (human) (UniProt P11717); test: cell-based or functional assay

Chain of human CI-M6PR on K562 cells (human) (P11717 41-2491): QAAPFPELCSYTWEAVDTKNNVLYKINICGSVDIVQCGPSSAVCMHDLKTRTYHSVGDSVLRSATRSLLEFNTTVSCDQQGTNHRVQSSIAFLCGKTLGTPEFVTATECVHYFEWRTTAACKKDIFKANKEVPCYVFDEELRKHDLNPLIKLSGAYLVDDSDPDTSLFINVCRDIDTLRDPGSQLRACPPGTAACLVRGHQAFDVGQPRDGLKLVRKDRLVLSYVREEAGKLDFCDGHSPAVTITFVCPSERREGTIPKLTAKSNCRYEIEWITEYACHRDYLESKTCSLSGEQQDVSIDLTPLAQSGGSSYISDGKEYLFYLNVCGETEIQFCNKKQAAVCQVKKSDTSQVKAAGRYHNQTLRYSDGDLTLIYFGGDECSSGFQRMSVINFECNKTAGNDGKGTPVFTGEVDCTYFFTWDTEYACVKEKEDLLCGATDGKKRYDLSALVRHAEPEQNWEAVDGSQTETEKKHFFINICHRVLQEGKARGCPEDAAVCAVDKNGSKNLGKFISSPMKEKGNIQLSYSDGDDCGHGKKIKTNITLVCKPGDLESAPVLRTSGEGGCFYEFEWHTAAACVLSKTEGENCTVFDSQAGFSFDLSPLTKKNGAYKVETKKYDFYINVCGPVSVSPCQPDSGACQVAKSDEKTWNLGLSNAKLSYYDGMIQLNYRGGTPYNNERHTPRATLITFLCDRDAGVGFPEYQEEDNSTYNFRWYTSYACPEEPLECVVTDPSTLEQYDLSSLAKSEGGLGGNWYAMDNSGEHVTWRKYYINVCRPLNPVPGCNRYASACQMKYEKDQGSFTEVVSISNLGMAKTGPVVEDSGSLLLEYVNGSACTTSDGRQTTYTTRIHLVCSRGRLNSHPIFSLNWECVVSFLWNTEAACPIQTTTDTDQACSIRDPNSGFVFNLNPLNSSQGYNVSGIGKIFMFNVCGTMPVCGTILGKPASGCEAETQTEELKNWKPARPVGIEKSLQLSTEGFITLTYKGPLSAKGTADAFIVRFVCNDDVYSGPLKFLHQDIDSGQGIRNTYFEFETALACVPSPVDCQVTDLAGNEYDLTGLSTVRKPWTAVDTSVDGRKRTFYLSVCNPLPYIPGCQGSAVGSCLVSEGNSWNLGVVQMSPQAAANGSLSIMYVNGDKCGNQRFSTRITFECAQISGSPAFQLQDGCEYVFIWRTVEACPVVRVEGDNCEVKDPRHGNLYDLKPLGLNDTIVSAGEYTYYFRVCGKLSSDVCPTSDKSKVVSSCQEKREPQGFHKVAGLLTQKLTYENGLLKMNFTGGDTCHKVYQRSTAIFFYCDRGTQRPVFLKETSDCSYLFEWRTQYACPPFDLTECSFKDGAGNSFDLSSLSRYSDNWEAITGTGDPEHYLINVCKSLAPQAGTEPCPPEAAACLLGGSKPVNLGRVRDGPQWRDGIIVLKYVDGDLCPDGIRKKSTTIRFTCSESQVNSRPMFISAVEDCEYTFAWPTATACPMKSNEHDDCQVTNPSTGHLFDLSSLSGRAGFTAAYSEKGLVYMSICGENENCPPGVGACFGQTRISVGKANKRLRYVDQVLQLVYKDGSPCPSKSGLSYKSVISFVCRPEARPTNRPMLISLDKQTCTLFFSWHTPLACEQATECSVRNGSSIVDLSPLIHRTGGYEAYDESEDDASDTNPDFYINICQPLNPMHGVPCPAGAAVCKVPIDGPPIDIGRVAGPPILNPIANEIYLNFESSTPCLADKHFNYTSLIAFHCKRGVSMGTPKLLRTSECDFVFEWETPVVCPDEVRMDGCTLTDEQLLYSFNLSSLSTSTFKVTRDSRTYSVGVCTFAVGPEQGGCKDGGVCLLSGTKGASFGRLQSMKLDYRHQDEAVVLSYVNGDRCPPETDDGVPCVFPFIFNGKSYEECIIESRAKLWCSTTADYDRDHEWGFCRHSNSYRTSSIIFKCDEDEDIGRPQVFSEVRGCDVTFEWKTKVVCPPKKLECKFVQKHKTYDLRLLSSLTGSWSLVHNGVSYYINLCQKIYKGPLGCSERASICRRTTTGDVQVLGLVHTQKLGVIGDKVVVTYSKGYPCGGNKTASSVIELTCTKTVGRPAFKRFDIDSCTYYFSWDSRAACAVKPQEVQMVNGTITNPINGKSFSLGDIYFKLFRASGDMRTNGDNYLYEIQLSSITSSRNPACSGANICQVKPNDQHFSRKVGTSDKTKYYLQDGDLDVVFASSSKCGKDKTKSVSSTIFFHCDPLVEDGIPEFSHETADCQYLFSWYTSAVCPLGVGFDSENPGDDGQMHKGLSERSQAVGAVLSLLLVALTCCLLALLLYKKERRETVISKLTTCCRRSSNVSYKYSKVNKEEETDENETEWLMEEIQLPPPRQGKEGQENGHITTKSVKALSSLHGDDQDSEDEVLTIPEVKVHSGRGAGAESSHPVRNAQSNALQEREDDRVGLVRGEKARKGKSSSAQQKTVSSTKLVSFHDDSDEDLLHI
Chain of KLH-IGF2 (P01344 25-91): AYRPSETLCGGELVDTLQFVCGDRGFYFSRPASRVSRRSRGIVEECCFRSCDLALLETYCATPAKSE

| Q1 on M6PR-KO K562 cells (target knocked out, control) [1] | Median : FL18-A [2] | Q1 (events above the Alexa 647 gate, below the FITC gate) [3] | Median : FL18-A [4] | Median : FL18-A on M6PR-KO K562 cells (target knocked out, control) [5] | Q1 on M6PR-KO K562 cells (target knocked out, control) [6] | Median : FL18-A on M6PR-KO K562 cells (target knocked out, control) [7] | Q1 (events above the Alexa 647 gate, below the FITC gate) [8] | Uptake pHrodo (MFI) [9] | Substance |
| --- | --- | --- | --- | --- | --- | --- | --- | --- | --- |
| 1.47% | 48.4 | 0.39 | 15.7 | 35.3 | 0.39% | 14.9 | 0.48 | – | IgG1-647 (antibody) |
| – | – | – | – | – | – | – | – | 210000 MFI | KLH-IGF2 (from UniProt P01344 25-91) |
| 13.1% | 3630 | 99.2 | 1280 | 220 | 86.8% | 27.7 | 99.5 | – | MEM-238-647 (antibody) |
